Measured values reported in PMC12800425, “De novo cysteine biosynthesis in Pseudomonas aeruginosa: Characterization of the two main cysteine synthase isoforms” (iScience, 2025).

Experiments:
[1] = target: T1, PA0932 (PaCysM, cysteine synthase B) (Pseudomonas aeruginosa, UniProt Q9I526); assay: UV-vis absorption ([…] nm), near-UV circular dichroism, fluorescence; assay type: binding
T1 construct: gene cysM; recombinant, N-terminal His-tag with TEV cleavage site; homodimer
T1 sequence (Q9I526 1-299): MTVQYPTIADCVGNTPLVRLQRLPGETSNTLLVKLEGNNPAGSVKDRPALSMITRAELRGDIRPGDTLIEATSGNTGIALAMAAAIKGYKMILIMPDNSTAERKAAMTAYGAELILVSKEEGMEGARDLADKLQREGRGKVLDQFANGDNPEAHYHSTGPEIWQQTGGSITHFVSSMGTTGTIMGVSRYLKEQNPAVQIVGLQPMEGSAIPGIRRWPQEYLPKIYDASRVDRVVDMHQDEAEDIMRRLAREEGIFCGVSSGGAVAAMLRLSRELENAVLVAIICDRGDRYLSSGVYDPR

[2] = target: T2, PA2709 (PaCysK, cysteine synthase A) (Pseudomonas aeruginosa, UniProt Q9I0D3); assay: as above; assay type: binding
T2 construct: gene cysK; recombinant, N-terminal His-tag with TEV cleavage site; homodimer
T2 sequence (Q9I0D3 1-324): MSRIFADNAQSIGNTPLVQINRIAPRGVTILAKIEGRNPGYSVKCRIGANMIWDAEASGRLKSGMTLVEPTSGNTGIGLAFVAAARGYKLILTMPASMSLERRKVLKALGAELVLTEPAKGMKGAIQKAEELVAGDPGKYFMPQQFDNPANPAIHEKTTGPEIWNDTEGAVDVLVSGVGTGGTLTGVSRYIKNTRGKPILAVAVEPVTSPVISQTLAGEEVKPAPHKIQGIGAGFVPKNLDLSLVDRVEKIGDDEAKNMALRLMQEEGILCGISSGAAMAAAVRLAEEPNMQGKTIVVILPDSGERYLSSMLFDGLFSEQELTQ

[3] = target: T1, PA0932 (PaCysM, cysteine synthase B); assay: ninhydrin steady-state kinetics, global fit (Km […]); substrate inhibition Ki; assay type: biochemical
[4] = substrate: CC(=O)OC[C@H](N)C(=O)O; assay: UV-vis absorption of PLP intermediates; steady-state kinetics, ninhydrin assay with thiosulfate (Km); assay type: biochemical, Pseudomonas aeruginosa; settings: pyridoxal […]'-phosphate (PLP) active site; forms alpha-aminoacrylate intermediate with PLP; pH 7.0; 25.0 °C
[5] = target: the molecule itself; assay: SEC-MALS; Agilent GPC/SEC, AdvanceBio SEC column (300 Å), dual-angle light-scattering detector, BSA as calibrant; protein loaded at 1 mg/mL in buffer H (100 mM HEPES, pH 7.0), 20 °C, 1 mL/min
[6] = substrate: CC(=O)OC[C@H](N)C(=O)O; assay: UV-vis absorption of PLP intermediates; steady-state kinetics with bisulfide electrode (Km); assay type: biochemical, Pseudomonas aeruginosa; settings: pyridoxal […]'-phosphate (PLP) active site; forms alpha-aminoacrylate intermediate with PLP; pH 7.0; 25.0 °C

Q: `Cc1ncc(COP(=O)(O)O)c(C=O)c1O` [PLP, pyridoxal 5′-phosphate] was tested. Which “UV-vis absorption (413 nm), near-UV circular dichroism, fluorescence” value [1] did it give?
A: The value was “absorption of the PLP cofactor bound as an internal aldimine to the catalytic lysine”.

Q: And the “UV-vis absorption (411 nm), near-UV circular dichroism, fluorescence” value [2]?
A: The value was “absorption of the PLP cofactor bound as an internal aldimine to the catalytic lysine”.

Q: How did the Ki [3] turn out when `O=S(O)(O)=S` [thiosulfate] was run?
A: The Ki was 970 ± 830 µM.

B1: PA0932 (PaCysM, cysteine synthase B) (Pseudomonas aeruginosa PAO1) (protein)
chain: T1 sequence (Q9I526 1-299)
notes: recombinant, N-terminal His-tag with TEV cleavage site; homodimer
Q: How did the Km [4] turn out when B1 was run?
A: The Km was 2700 ± 600 µM.

Q: What about the kcat [4] of the same molecule?
A: The kcat was 209 ± 25 s⁻¹.

Q: And the kcat/Km [4]?
A: The kcat/Km was 79000 ± 20000 M⁻¹ s⁻¹.

B2: Cysteine synthase B (PA0932, PaCysM) from Pseudomonas aeruginosa (enzyme, Pseudomonas aeruginosa PAO1, UniProt Q9I526 1-299, looked up)
chain: T1 sequence (Q9I526 1-299)
modifications: PLP cofactor bound as an internal aldimine to the catalytic lysine (Lys45, based on sequence alignments)
notes: Cysteine synthase B (CysM, PA0932) of P. aeruginosa PAO1; gene optimised for E. coli, synthesised and cloned between NdeI and BamHI into pET28a-TEV; calculated mass for a dimer 65 kDa; also called OASS-B; S-sulfocysteine synthase; not shown: His6, N-terminal, cleaved
Q: B2 was tested. Which “stoichiometry N” value [5] did it give?
A: Its value is 2.

B3: PA2709 (PaCysK, cysteine synthase A) (Pseudomonas aeruginosa PAO1) (protein)
chain: T2 sequence (Q9I0D3 1-324)
notes: as for B1
Q: How did the Km [6] turn out when B3 was run?
A: The Km was 1100 ± 100 µM.

Q: And the kcat [6]?
A: The kcat was 102 ± 3 s⁻¹.

Q: What about the kcat/Km [6] of the same molecule?
A: Its kcat/Km is 90000 ± 9000 M⁻¹ s⁻¹.

B4: Cysteine synthase A (PA2709, PaCysK) from Pseudomonas aeruginosa (enzyme, Pseudomonas aeruginosa PAO1, UniProt Q9I0D3 1-324, looked up)
chain: T2 sequence (Q9I0D3 1-324)
modifications: PLP cofactor bound as an internal aldimine to the catalytic lysine (Lys44, based on sequence alignments)
notes: Cysteine synthase A (CysK, PA2709) of P. aeruginosa PAO1; gene optimised for E. coli, synthesised and cloned between NdeI and BamHI into pET28a-TEV; calculated mass for a dimer 69 kDa; also called O-acetylserine sulfhydrylase; OASS-A; not shown: His6, N-terminal, cleaved
Q: How did the “stoichiometry N” value [5] turn out when B4 was run?
A: The value was 2.
